Earlier results in article PMC4660202.
pKd: −log10 of the molar value.

Target: IZUMO1 ECD (Mus musculus) (UniProt Q9D9J7)
UniProt Q9D9J7, sequence (Q9D9J7 22-319): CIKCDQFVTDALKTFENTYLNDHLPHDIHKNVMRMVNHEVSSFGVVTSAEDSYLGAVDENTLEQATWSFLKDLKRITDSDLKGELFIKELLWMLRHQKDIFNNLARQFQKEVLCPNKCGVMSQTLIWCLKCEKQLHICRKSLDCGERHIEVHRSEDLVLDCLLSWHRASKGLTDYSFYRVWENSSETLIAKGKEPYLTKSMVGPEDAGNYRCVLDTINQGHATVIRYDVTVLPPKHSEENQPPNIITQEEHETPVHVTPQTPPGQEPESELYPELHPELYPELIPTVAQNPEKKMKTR

pKd: 4.91
Substance: JUNO (from UniProt Q9EQF4)
